Source: the supplement of paper PMC9112550, “Optimization of the antimicrobial peptide Bac7 by deep mutational scanning” (BMC Biology, 2022)

Each sequence was assayed on Escherichia coli TOP10 (assay: shrunken log2 fold change of peptide-encoding DNA abundance (4.5 h post-induction vs induction); higher = less antimicrobial activity (less host growth inhibition)). Settings: time post-induction: 4.5 h; library: site-saturation at positions 5, 18, 19, 20.
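Further: peptides expressed intracellularly from a pBAD plasmid library in pooled LB shake-flask culture, induced with 0.3% L-arabinose, DNA abundance read by NGS, three biological replicates, DESeq2 with apeglm shrinkage.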

Sequence	shrunken log2 fold change
RRIRMRPPRLPRPRPRPVFNPRP	-0.0958
RRIRLRPPRLPRPRPRPCVLPRP	-0.44
RRIRKRPPRLPRPRPRPGRTPRP	0.223
RRIRRRPPRLPRPRPRPSKWPRP	-0.149
RRIRVRPPRLPRPRPRPAGMPRP	-0.0507
RRIRLRPPRLPRPRPRPFYAPRP	-0.279
RRIRVRPPRLPRPRPRPHVFPRP	-0.0624
RRIRTRPPRLPRPRPRPSATPRP	0.273
RRIRYRPPRLPRPRPRPAKGPRP	-0.183
RRIRTRPPRLPRPRPRPTIKPRP	-0.051
RRIRGRPPRLPRPRPRPFMHPRP	0.416
RRIRERPPRLPRPRPRPKSSPRP	-0.0505
RRIRERPPRLPRPRPRPMANPRP	0.0745
RRIRCRPPRLPRPRPRPKVNPRP	-0.542
RRIRTRPPRLPRPRPRPYHDPRP	-0.13
RRIRRRPPRLPRPRPRPSWYPRP	0.363
RRIRGRPPRLPRPRPRPSVMPRP	0.107
RRIRDRPPRLPRPRPRPRVTPRP	-0.0173
RRIRHRPPRLPRPRPRPVTEPRP	-0.0954
RRIRMRPPRLPRPRPRPWTGPRP	-0.217
RRIRARPPRLPRPRPRPKHQPRP	0.324
RRIRYRPPRLPRPRPRPHNEPRP	-0.675
RRIRNRPPRLPRPRPRPPHLPRP	0.155
RRIRSRPPRLPRPRPRPREAPRP	0.587
RRIRFRPPRLPRPRPRPYDRPRP	-0.0252

Sequence	shrunken log2 fold change
RRIRYRPPRLPRPRPRPKTEPRP	-0.00177
RRIRQRPPRLPRPRPRPAYVPRP	-0.0582
RRIRFRPPRLPRPRPRPGNPPRP	-0.00343
RRIRGRPPRLPRPRPRPQCRPRP	0.0701
RRIRGRPPRLPRPRPRPLAIPRP	0.567
RRIRLRPPRLPRPRPRPNYLPRP	-0.377
RRIRDRPPRLPRPRPRPRNEPRP	0.00109
RRIRYRPPRLPRPRPRPFEAPRP	-0.886
RRIRHRPPRLPRPRPRPGCSPRP	-0.08
RRIRQRPPRLPRPRPRPFVRPRP	-0.0842
RRIRVRPPRLPRPRPRPQEFPRP	-0.06
RRIRTRPPRLPRPRPRPADHPRP	-0.0507
RRIRWRPPRLPRPRPRPKSSPRP	0.000999
RRIRRRPPRLPRPRPRPRYFPRP	0.502
RRIRKRPPRLPRPRPRPNRRPRP	0.0646
RRIRWRPPRLPRPRPRPHVGPRP	0.0547
RRIRLRPPRLPRPRPRPGGTPRP	-0.0425
RRIRWRPPRLPRPRPRPVEKPRP	0.234
RRIRDRPPRLPRPRPRPFRYPRP	0.0402
RRIRCRPPRLPRPRPRPTGRPRP	0.238
RRIRARPPRLPRPRPRPCYCPRP	-0.0765
RRIRRRPPRLPRPRPRPCSCPRP	-0.017
RRIRMRPPRLPRPRPRPGWFPRP	1.16
RRIRYRPPRLPRPRPRPYIPPRP	-0.457
RRIRKRPPRLPRPRPRPLGCPRP	0.659
